We go through 3 molecules from article PMC5877399 (Biomacromolecules, 2014).

The chains are these.
T1: PA1-Gd(DO3A), palmitoyl-IAAAEEEEK(DO3A:Gd)-NH2 (not fully specified (residue 9); printed as palmitoyl-IAAAEEEEK(DO3A:Gd)-NH2; also: Gd complex of DO3A)
T1 peptide: Palmitoyl-IAAAEEEEK-NH2

B1: PA2-Gd(DO3A), palmitoyl-MAAAEEEEK(DO3A:Gd)-NH2 (peptide)
peptide: MAAAEEEEK
modifications: not fully specified; palmitoyl on the N-terminus; K(DO3A:Gd); C-terminal amide (NH2)

*: point of attachment. Ru(bipy)3 = tris(bipyridine)ruthenium complex attached to the Lys ε-amine via an NHS ester; Palmitoyl = CCCCCCCCCCCCCCCC(=O)*

Series [1] deals with T1, PA1-Gd(DO3A), …. Nature of the series: fluorescence polarisation. For orientation: In fluorescence polarisation assays a small probe gives low polarisation when free and higher when bound to something large.
Series [2] concerns the molecule itself. Nature of the series: circular dichroism spectroscopy. (In general: CD spectra are sensitive to the conformation of chiral molecules.)
The target of series [3] is B1. Description: fluorescence polarisation.

For the molecule Palmitoyl-IAAAEEEEK(Ru(bipy)3)-NH2 (also: Ru(bipy)3 via NHS ester linker, Ru complex) [PA1-Ru(bipy)3, palmitoyl-IAAAEEEEK[Ru(bipy)3]-NH2], the binding result in series [1] is “binds”.

For the molecule B1, in series [2], the binding result is “binds”.

For the molecule Palmitoyl-MAAAEEEEK(Ru(bipy)3)-NH2 (also: Ru(bipy)3 via NHS ester linker, Ru complex) [PA2-Ru(bipy)3, palmitoyl-MAAAEEEEK[Ru(bipy)3]-NH2], the binding result in series [3] is “binds”.
